Test results taken from patent publication US20190031764A1 (published 2019).

Molecular target: human PD1 antigen (human, UniProt Q15116 25-167)
Experiment: SPR

Chain of human PD1 antigen (Q15116 25-167): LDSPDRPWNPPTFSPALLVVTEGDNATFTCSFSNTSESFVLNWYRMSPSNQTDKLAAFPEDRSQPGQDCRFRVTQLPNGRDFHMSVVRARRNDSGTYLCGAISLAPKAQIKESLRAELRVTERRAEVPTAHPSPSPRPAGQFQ

B1: S75D variant of PD1B244 (antibody, V domains shown)
VH: QVQLVQSGAEVKKPGSSVKVSCKASGGTFSSYAISWVRQAPGQGLEWMGGIIPIFDTANYAQKFQGRVTITADEDTSTAYMELSSLRSEDTAVYYCARPGLAAAYDTGSLDYWGQGTLVTVSS
VL: EIVLTQSPATLSLSPGERATLSCRASQSVRSYLAWYQQKPGQAPRLLIYDASNRATGIPARFSGSGSGTDFTLTISSLEPEDFAVYYCQQRNYWPLTFGQGTKVEIK
- Kd: 1.38 nM

B2: S84D variant of PD1B244 (antibody, V domains shown)
VH: QVQLVQSGAEVKKPGSSVKVSCKASGGTFSSYAISWVRQAPGQGLEWMGGIIPIFDTANYAQKFQGRVTITADESTSTAYMELDSLRSEDTAVYYCARPGLAAAYDTGSLDYWGQGTLVTVSS
VL: EIVLTQSPATLSLSPGERATLSCRASQSVRSYLAWYQQKPGQAPRLLIYDASNRATGIPARFSGSGSGTDFTLTISSLEPEDFAVYYCQQRNYWPLTFGQGTKVEIK
- Kd: 1.51 nM

B3: S88D variant of PD1B244 (antibody, V domains shown)
VH: QVQLVQSGAEVKKPGSSVKVSCKASGGTFSSYAISWVRQAPGQGLEWMGGIIPIFDTANYAQKFQGRVTITADESTSTAYMELSSLRDEDTAVYYCARPGLAAAYDTGSLDYWGQGTLVTVSS
VL: EIVLTQSPATLSLSPGERATLSCRASQSVRSYLAWYQQKPGQAPRLLIYDASNRATGIPARFSGSGSGTDFTLTISSLEPEDFAVYYCQQRNYWPLTFGQGTKVEIK
- Kd: 1.36 nM
